2 substances from US20250326865A1, “C-MET PROTEIN-BINDING PEPTIDE COMPLEX” (PeptiDream Inc., priority 2021, published 2025) can be followed below.

pEC50: −log10 of the molar value. Positions of bridges follow the written chain, without caps; N, C: chain ends. Non-standard residues stand in square brackets, D forms with d. Primed or numbered codes have the meaning given here. No end group written: not given here. NMeF = CN[C@@H](Cc1ccccc1)C(=O)O; NMeC = CN[C@@H](CS)C(=O)O; Ahp′ = not defined here

Common to all, as to assay type: cell-based
For one assay, the target named is T1, c-Met (Homo sapiens, UniProt P08581).
T1 construct: endogenous in cells; host or cells: A431 (human)
T1 sequence (P08581 25-1390): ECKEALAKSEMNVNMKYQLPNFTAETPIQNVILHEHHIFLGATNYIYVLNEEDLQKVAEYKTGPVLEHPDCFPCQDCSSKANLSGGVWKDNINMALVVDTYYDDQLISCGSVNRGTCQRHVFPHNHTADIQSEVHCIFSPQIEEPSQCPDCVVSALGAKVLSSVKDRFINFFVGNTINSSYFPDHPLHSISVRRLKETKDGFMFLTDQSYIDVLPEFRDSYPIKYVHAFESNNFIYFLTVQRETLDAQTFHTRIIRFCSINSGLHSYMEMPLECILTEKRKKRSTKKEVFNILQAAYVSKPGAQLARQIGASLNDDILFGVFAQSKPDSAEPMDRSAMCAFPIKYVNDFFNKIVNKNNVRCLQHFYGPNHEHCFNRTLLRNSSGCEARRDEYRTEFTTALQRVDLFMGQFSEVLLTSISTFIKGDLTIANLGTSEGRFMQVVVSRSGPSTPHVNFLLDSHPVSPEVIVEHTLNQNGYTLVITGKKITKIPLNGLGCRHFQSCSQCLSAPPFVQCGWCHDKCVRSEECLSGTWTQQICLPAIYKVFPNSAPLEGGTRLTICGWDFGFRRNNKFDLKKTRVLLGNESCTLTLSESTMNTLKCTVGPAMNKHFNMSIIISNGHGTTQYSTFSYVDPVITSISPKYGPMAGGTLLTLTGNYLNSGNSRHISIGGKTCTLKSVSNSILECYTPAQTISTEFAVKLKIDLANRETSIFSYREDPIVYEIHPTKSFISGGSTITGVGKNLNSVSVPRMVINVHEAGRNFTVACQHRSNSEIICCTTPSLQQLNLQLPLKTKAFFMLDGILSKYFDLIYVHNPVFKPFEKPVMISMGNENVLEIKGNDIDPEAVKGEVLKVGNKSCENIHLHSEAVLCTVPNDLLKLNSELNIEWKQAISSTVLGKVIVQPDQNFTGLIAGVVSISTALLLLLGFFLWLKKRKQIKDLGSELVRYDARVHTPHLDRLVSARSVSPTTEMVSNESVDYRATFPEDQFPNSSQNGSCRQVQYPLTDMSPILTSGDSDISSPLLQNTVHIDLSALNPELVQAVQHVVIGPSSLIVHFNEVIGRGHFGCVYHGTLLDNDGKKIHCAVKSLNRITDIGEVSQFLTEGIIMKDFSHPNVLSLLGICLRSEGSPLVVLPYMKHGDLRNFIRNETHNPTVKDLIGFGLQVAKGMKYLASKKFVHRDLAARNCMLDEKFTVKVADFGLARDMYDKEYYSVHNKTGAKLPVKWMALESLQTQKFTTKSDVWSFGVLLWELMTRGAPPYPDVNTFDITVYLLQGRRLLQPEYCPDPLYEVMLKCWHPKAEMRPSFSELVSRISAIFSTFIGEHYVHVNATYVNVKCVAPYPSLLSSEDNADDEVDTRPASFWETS
Put plainly: Phospho-c-Met AlphaLISA assay (c-Met agonist activity) in A431 cells. The following applies: phospho-c-Met AlphaLISA, A431 cells, FIG. 1; read-out: EC50 (c-Met agonist activity). In short, it runs like this:
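Human A431 cells serum-starved overnight in 0.1% BSA medium, then stimulated 15 min with peptide complex, with HGF as control. Phospho-c-Met (Tyr1234/1235) in lysates measured by AlphaLISA SureFire Ultra. C50 is the peptide concentration giving 50% of the HGF-induced signal.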
For orientation: Bead proximity is the source of the signal in Alpha formats.

For assay [1], the system named is Normal human umbilical vein vascular endothelial cells (HUVECs). The following applies: HUVEC, cultured for 2 days after addition, FIG. 2; read-out: EC50 (HUVEC cell proliferation). On the procedure: In order to evaluate the biological activity of the peptide complex of the present invention, the cell proliferation inducing activity was verified. Normal human umbilical vein vascular endothelial cells (HUVECs) were cultured using HuMedia-EG2 (KURABO INDUSTRIES LTD.). After cells were detached using Accutase (Innovative cell technologies), they were resuspended in a Medium without serum or growth factors (Cell system) containing 5% FBS (MBL), seeded into a 96-well plate at 10000 cells per well, and cultured overnight. The next day, a complex (GFs_c-Met-00014336-PEG13 dimer; peptide complex no. 49 in Table 4) of the peptide (SEQ ID NO: 34) synthesized in Example 2 and a linker (SEQ ID NO: 37), or Recombinant Human HGF Protein (R&D systems) as a control was added and cultured for another 2 days. The medium was then removed and the cell count was determined quantitatively using the CellTiter-Glo (registered trademark) Luminescent Cell Viability Assay reagent (Promega) according to the protocol provided. A SpectraMax (registered trademark) Paradigm (registered trademark) multimode microplate reader (Molecular Devices, LLC.) was used for detection. The obtained signal value was analyzed by GraphPad Prism, and EC50 was calculated.

The next assay concerns the target T2, HGF R (Homo sapiens, UniProt P08581).
T2 construct: endogenous in cells; host or cells: A431
Briefly: Human Phospho-RTK array assay in A431 cells. Particulars: 10 minutes of stimulation, 2 nM complex, 7.8 nM HGF. On the procedure:
A431 cells were cultured in DMEM high glucose, GlutaMAX (registered trademark) Supplement, pyruvate (Thermo Fisher Scientific), containing 10% FBS (Gibco). After cells were detached using Accutase (registered trademark) (Innovative cell technologies), they were seeded into a 6-well plate at 1000000 cells per well and cultured overnight.
The next day, for starvation, the culture medium was changed to DMEM high glucose, GlutaMAX (registered trademark) Supplement, pyruvate (Thermo Fisher Scientific), containing an assay medium (0.1% BSA (Sigma-Aldrich)), and the cells were cultured overnight. Then, 7.8 nM Recombinant Human HGF Protein (R&D systems) or 2 nM complex (GFs_c-Met 00014336-PEG9 dimer; peptide complex No. 51 in Table 4) of peptide (SEQ ID NO: 34) synthesized in Example 2 and a linker (SEQ ID NO: 36) was added, and after 10 minutes of stimulation, cells were lysed in a Lysis Buffer provided in the Proteome Profiler Human Phospho-RTK Array Kit (R & D systems). Thereafter, the procedure was performed according to the protocol of the kit, and chemiluminescent signals by WesternSure (registered trademark) PREMIUM chemiluminescent substrate kit (LI-COR) were detected using C-DiGit (registered trademark) (Scrum).
In (2) in FIG. 5, a is the result of no addition, b is of addition of HGF, and c of addition of the peptide complex.

T2 sequence (P08581 25-1390): as above

Consider “HGF: Recombinant Human HGF Protein (R&D systems), hepatocyte growth factor, used as a control”, for which the values for the pEC50 (in the assay with c-Met; in assay [1]) were 9.18 and 9.43, respectively. Moreover, the “specific phosphorylation pattern of receptor tyrosine kinases” value with HGF R was “Only HGF R was specifically phosphorylated”.
Take “51 ({CH2CO}-[NMeF]TAVS[NMeF]DED[Ahp′]PRWS[NMeC]; thioether N-15 (inferred); not fully specified; reading uncertain; also: conjugated moiety via linker) [compound 51]”: in the assay with HGF R, the “specific phosphorylation pattern of receptor tyrosine kinases” value is listed as “Only HGF R was specifically phosphorylated”.
